The numbers were not newly measured in paper PMC11866742, which cites them from elsewhere.

The data set concerns the target SIRPα (Homo sapiens) (UniProt P78324).
Chain of UniProt P78324 (P78324 31-373): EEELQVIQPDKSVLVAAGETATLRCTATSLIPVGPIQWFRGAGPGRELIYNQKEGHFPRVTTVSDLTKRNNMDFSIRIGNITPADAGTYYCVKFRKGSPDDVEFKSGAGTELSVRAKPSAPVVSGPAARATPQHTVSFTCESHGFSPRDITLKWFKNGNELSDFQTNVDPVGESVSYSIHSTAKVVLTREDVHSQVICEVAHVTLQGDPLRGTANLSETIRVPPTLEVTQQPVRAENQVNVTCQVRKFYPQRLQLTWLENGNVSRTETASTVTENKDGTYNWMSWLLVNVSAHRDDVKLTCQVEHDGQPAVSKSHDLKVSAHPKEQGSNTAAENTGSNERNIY

In the case of CD47 (from UniProt Q08722), the Kd was 1.5 µM.

As usually defined, the Kd is a measure of binding affinity in units of concentration.
